Assay results published in article PMC9922296, “Mechanistic insights into RNA surveillance by the canonical poly(A) polymerase Pla1 of the MTREC complex” (Nature Communications, 2023).
Where a chain is given by its changes, count along the chain named. Names may count otherwise. “And” between values parts separate entries of the source, which are not always exact repeats. Equal values may be shown once. Values belong to the molecule of their own block, whether it stands above or below them. No end group written: not given here.

Experiments:
[1] = target: C-terminal RRM domain of Pla1 (Pla1RRM, residues 352-566), purified (S. pombe) (UniProt Q10295); assay: ITC; MicroCal PEAQ-ITC, 25 °C, 20 mM HEPES pH 7.5, 150 mM NaCl, 2 mM BME; 40-50 µM protein in the cell, 400-500 µM ligand in the syringe; one-binding site model
[2] = target: T1, Red1 residues 288-345 with Val313 mutated to arginine (S. pombe, UniProt Q9UTR8 288-345, Val313 to an arginine residue); assay: ITC
T1 sequence: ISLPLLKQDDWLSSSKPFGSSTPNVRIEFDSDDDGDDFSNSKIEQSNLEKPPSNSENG

[3] = target: Biotinylated Iss1 residues 30-76 (S. pombe); assay: BLI; Octet RED96e, 25 °C, 20 mM HEPES pH 7.5, 150 mM NaCl, 2 mM BME, 0.01% Tween-20; biotinylated Red1_(288-345) or Iss1_(30-76) on streptavidin biosensors, 2-fold serial dilution of Pla1FL; global 1:1 fit; apparent
[4] = target: T2, Pla1FL (full-length Pla1, residues 1-566) (S. pombe, UniProt Q10295 1-566); assay: BLI; biotinylated Red1 288-345 or Iss1 30-76 immobilised on streptavidin biosensors, 2-fold serial dilution of Pla1FL as analyte; 25 °C; 20 mM HEPES pH 7.5, 150 mM NaCl, 2 mM BME, 0.01% Tween-20; global 1:1 fit; details: both partners purified
T2 construct: Pla1, canonical poly(A) polymerase, S. pombe, residues 1-566; the His6 tag is non-cleavable; source: E. coli BL21 (DE3) Rosetta2, purified (His-Trap, Resource Q, Superdex 200); not shown: His6, N-terminal, kept
T2 sequence (looked up): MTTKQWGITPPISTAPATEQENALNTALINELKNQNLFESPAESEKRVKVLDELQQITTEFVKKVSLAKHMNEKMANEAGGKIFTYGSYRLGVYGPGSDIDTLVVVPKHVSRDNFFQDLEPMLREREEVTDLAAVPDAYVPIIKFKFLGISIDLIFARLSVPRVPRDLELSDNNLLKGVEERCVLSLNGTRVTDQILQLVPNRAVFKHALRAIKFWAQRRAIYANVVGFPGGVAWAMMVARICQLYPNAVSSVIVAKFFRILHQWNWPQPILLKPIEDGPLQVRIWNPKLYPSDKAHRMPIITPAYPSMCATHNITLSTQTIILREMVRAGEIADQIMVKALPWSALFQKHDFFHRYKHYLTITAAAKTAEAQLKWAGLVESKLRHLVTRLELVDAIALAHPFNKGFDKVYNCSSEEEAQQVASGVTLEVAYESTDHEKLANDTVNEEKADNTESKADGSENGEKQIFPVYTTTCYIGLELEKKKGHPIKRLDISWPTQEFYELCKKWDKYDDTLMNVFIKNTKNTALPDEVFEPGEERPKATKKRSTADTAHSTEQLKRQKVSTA

[5] = target: T3, C-terminal RRM domain of Pla1 (Pla1RRM, residues 352-566), purified (S. pombe, UniProt Q10295 352-566); assay: ITC; MicroCal PEAQ-ITC, 25 °C, 20 mM HEPES pH 7.5, 150 mM NaCl, 2 mM BME; 40-50 µM protein in the cell, 400-500 µM ligand in the syringe; one-binding site model; details: both partners purified
T3 construct: canonical poly(A) polymerase Pla1, S. pombe, C-terminal RRM domain, residues 352-566; also called Pla1 CTD; source: E. coli BL21 (DE3) Rosetta2, purified (His-Trap, TEV cleavage, Resource Q, Superdex 200); not shown: His6, N-terminal, cleaved
T3 sequence (looked up): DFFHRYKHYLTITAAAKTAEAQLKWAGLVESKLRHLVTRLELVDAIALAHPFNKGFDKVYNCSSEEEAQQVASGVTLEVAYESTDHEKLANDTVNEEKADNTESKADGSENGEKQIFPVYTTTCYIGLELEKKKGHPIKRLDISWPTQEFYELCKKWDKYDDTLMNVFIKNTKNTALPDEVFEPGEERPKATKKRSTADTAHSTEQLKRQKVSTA

[6] = target: T4, Full-length Pla1 (Pla1FL, residues 1-566) with non-cleavable N-terminal His6, purified (S. pombe, UniProt Q10295 1-566); assay: BLI; Octet RED96e, 25 °C, 20 mM HEPES pH 7.5, 150 mM NaCl, 2 mM BME, 0.01% Tween-20; biotinylated Red1_(288-345) or Iss1_(30-76) on streptavidin biosensors, 2-fold serial dilution of Pla1FL; global 1:1 fit; apparent; details: both partners purified
T4 construct: canonical poly(A) polymerase Pla1, S. pombe, full length, residues 1-566; source: E. coli BL21 (DE3) Rosetta2, purified (His-Trap, Resource Q, Superdex 200); not shown: His6, N-terminal, kept
T4 sequence (looked up): T2 sequence (looked up)

[7] = target: T5, Pla1RRM (C-terminal RRM domain of Pla1, residues 352-566) (S. pombe, UniProt Q10295 352-566); assay: ITC; Red1 or Iss1 construct in the syringe (400-500 µM) titrated into Pla1RRM (wild type or mutant) in the cell (40-50 µM); 25 °C; 20 mM HEPES pH 7.5, 150 mM NaCl, 2 mM BME; one-binding site model; each independent measurement listed; details: both partners purified
T5 construct: Pla1, canonical poly(A) polymerase, S. pombe, C-terminal RRM domain, residues 352-566; also called Pla1 RRM domain; Pla1 CTD; source: E. coli BL21 (DE3) Rosetta2, purified (His-Trap, TEV cleavage, Resource Q, Superdex 200); not shown: His6, N-terminal, cleaved
T5 sequence (looked up): T3 sequence (looked up)

[8] = target: T5, Pla1RRM (C-terminal RRM domain of Pla1, …); assay: as above; details: both partners purified; remark: listed apart in the source

Kd [1]: 2.5 µM
Molecule: Iss1 residues 30-76, purified (domain or fragment)

Kd [2]: 17.9 µM
B1: C-terminal RRM domain of Pla1 (Pla1RRM, residues 352-566), purified (domain or fragment)
chain: T3 sequence (looked up)

Kd [3]: 0.115 µM
koff [3]: 0.024 s⁻¹
kon [3]: 210000 M⁻¹ s⁻¹
B2: Full-length Pla1 (Pla1FL, residues 1-566) with non-cleavable N-terminal His6, purified (enzyme)
chain: T2 sequence (looked up)

koff [4]: 0.0242 s⁻¹
B3: biotinylated Iss1 30-76 (domain or fragment, S. pombe)
chain: VSNAKSPEQASEESDDSDIEFIIETKPGERAEPLGGSIATLGSTRPS
modifications: also: biotin (EZ-Link NHS-PEG4-Biotin), sites not given here
notes: Iss1, S. pombe, residues 30-76; same protein as Dm12, biotinylated for immobilisation on streptavidin biosensors; also called Iss1_(30-76), biotin-labelled; source: E. coli BL21 (DE3) Rosetta2, purified, biotinylated with EZ-Link NHS-PEG4-Biotin; not shown: His-Thioredoxin, N-terminal, cleaved

fold loss in affinity against wild-type Red1_(288-345) [5]: ~13 fold
B4: Red1 residues 288-345 with Val313 mutated to arginine (domain or fragment, S. pombe, UniProt Q9UTR8 288-345, looked up)
chain: T1 sequence
notes: also called V313R; source: E. coli BL21 (DE3), purified; not shown: GB1, N-terminal, cleaved; His6, C-terminal, kept

koff [4]: 0.0163 s⁻¹
kon [4]: 275000 M⁻¹ s⁻¹
B5: biotinylated Red1 288-345 (domain or fragment, S. pombe)
chain: T1 sequence with R26V
modifications: also: biotin (EZ-Link NHS-PEG4-Biotin), sites not given here
notes: same protein as Dm2, biotinylated for immobilisation on streptavidin biosensors; source: E. coli BL21 (DE3), purified, biotinylated with EZ-Link NHS-PEG4-Biotin; not shown: GB1, N-terminal, cleaved; His6, C-terminal, kept

Kd [6]: 0.0592 µM
koff [6]: 0.016 s⁻¹
kon [6]: 280000 M⁻¹ s⁻¹
B6: Biotinylated Red1 residues 288-345 (domain or fragment, S. pombe, UniProt Q9UTR8 288-345, looked up)
chain: T1 sequence with R26V
modifications: also: biotin (EZ-Link NHS-PEG4-Biotin), site not given here
notes: source: E. coli BL21 (DE3), purified, biotinylated; not shown: GB1, N-terminal, cleaved; His6, C-terminal, kept

Kd [7]: 1.1 ± 0.25 µM
Kd [8]: 0.77 µM and 1.53 µM
stoichiometry N [8]: 0.99 and 1.05
B7: Red1 288-345 N311A (domain or fragment, S. pombe, UniProt Q9UTR8 288-345, looked up)
chain: T1 sequence with N24A, R26V
notes: also called Red1N311A; source: E. coli BL21 (DE3), purified (His-Trap, TEV cleavage, second IMAC, Superdex 75); not shown: GB1, N-terminal, cleaved; His6, C-terminal, kept

Kd [8]: 15.8 µM and 19.9 µM
stoichiometry N [8]: 1.13 and 0.96
B8: Red1 288-345 V313R (domain or fragment, S. pombe, UniProt Q9UTR8 288-345, looked up)
chain: T1 sequence
notes: source: E. coli BL21 (DE3), purified (His-Trap, TEV cleavage, second IMAC, Superdex 75); not shown: GB1, N-terminal, cleaved; His6, C-terminal, kept

Kd [7]: 1.2 ± 0.3 µM
Kd [8]: 1.01 µM and 1.45 µM
stoichiometry N [8]: 1.04 and 1.05
B9: Red1 288-345 S308A (domain or fragment, S. pombe, UniProt Q9UTR8 288-345, looked up)
chain: T1 sequence with S21A, R26V
notes: also called Red1S308A; source: E. coli BL21 (DE3), purified (His-Trap, TEV cleavage, second IMAC, Superdex 75); not shown: GB1, N-terminal, cleaved; His6, C-terminal, kept

Kd [8]: 7.3 µM and 8.4 µM
stoichiometry N [8]: 1.31 and 1.3
B10: Red1 288-322 (domain or fragment, S. pombe)
chain: ISLPLLKQDDWLSSSKPFGSSTPNVVIEFDSDDDG
notes: as for B8

Kd [5]: 7.9 µM
B11: Red1 residues 288-322, purified (domain or fragment, S. pombe, UniProt Q9UTR8 288-322, looked up)
chain: B10 chain
notes: as for B8
